From patent publication US20230034906A1 (TRINOMAB BIOTECH, published 2023)

T1: homologous sequence of gB glycoprotein of 56 virus strains (gB_Con. Strain) (human cytomegalovirus (homologous …, UniProt P06473 25-699))
T1 construct: C-terminal tags are part of the entry
T1 chain: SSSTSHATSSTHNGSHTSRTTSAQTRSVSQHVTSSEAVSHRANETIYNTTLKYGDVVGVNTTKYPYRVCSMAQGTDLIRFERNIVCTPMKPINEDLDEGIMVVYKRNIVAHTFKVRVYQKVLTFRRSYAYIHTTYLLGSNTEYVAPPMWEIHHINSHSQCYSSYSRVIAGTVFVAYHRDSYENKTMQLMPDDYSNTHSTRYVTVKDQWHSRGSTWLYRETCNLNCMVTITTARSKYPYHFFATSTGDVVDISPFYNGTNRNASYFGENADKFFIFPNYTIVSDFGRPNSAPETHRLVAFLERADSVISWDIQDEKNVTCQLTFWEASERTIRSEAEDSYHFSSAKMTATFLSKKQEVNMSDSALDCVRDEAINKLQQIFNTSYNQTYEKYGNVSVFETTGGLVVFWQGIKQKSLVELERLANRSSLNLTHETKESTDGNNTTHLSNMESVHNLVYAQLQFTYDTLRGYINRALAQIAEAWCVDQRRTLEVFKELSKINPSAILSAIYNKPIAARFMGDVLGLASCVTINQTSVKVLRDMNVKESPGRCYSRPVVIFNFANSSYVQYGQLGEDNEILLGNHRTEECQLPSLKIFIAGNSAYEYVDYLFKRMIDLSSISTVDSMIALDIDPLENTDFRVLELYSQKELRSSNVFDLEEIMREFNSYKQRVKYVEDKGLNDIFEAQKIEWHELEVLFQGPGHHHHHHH

T2: gB_Towne protein with N383 mutated into glutamine (human cytomegalovirus, strain Towne, UniProt F5HB53 25-700)
T2 chain: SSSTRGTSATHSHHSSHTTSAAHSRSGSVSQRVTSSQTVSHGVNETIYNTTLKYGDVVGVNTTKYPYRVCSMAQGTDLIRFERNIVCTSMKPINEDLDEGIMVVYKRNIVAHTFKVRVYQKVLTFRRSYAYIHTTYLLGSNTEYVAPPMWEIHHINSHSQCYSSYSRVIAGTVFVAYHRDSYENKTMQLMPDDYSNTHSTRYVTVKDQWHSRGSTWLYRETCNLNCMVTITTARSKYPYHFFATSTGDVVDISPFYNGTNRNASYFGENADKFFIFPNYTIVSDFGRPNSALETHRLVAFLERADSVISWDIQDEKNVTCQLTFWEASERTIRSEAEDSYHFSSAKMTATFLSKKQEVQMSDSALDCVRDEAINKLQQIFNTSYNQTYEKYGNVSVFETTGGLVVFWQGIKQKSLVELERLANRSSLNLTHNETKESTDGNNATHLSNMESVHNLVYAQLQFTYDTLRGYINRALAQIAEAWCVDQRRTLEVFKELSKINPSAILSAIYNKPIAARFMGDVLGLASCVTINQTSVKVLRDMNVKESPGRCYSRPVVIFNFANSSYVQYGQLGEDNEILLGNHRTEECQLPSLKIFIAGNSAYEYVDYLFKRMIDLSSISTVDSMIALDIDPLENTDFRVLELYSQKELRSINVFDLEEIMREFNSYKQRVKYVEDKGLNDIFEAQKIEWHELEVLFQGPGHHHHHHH


How the values were obtained:
[1] = biological target: T3, HCMV gB glycoprotein of standard strain Towne (gB_Towne strain) (human cytomegalovirus, strain Towne, UniProt F5HB53 25-700); experiment: SPR (Biacore), antibody captured by anti-human IgG (Fc) on CM5 chip, gB in solution
T3 construct: also called antigen protein gB0049

[2] = biological target: T1, homologous sequence of gB glycoprotein …; experiment: ELISA, HEK293 culture supernatant on gB
[3] = biological target: gB glycoprotein of HCMV standard strain Towne, on the virus (human cytomegalovirus, strain Towne, UniProt P13201 23-907); experiment: cell-based or functional assay
Chain of gB glycoprotein of HCMV standard strain Towne, on the virus (P13201 23-907 limits assumed): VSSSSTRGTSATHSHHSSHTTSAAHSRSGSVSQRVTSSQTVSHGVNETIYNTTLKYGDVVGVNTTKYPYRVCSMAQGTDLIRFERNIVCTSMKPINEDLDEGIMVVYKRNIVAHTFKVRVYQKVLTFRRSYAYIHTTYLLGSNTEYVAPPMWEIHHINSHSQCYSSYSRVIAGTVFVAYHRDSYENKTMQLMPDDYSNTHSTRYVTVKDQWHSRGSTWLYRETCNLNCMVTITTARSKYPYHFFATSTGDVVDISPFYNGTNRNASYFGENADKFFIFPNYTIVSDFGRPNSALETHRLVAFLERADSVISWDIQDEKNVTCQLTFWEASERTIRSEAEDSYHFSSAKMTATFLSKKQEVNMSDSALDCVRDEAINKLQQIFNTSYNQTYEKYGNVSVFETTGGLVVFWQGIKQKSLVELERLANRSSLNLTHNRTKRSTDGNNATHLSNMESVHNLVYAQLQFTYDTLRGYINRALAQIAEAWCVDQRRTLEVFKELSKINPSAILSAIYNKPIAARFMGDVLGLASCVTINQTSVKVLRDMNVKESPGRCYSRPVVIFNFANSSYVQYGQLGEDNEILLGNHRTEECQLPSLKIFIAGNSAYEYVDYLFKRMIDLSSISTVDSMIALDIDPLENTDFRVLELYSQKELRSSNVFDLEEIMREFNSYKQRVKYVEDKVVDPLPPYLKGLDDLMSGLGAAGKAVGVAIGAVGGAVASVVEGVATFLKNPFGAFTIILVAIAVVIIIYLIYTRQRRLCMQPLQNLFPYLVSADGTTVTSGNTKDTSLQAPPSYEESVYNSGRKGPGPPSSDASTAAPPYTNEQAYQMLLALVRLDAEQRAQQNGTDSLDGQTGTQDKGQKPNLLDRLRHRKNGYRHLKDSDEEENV

[4] = biological target: T2, gB_Towne protein with N383 mutated into …; experiment: indirect ELISA, antibody titrated on gB glycoprotein mutant

Row | Binder | Kd [1] | binding result [2] | EC50 of neutralizing Towne virus infection in primary HUVEC cells [3] | binding result [4]
1 | TRN1018 (antibody, V domains shown, Fully human antibody; kappa light chain) VH: QVQLVQSGGGVVQPGRSLRLSCAASGFTFSNHGIHWVRQAPGKGLEWVAVISSDGTDTRDADSVRGRFTISRDNSRNTVYLDMNSLRAEDTAVYYCARDGRCGDERCYSGLPDVWGRGTRVSVSS VL: EIVLTQSPATLSLSPGERATLSCRASQSVGGYLAWYQQKVGQAPRLLIYDASNRATGIPARFSGSGSGTDFTLTISSLEPEDFAVYYCQQRSNWPPLTFGGGTKVEIKR | 27.9 nM | binds |  | 
2 | TRN1020 (antibody, V domains shown, Fully human antibody; lambda light chain) VH: EVQLVESGGGLAQPGGSLRLSCEASGFSFSTYAMSWVRQAPGKGLEWVAAVSGRGTSTFYLDSVKGRFTVSRDNSRTTVFLQMNSLKVEDTAFYYCAKDSYVGGSFDWLPRPDYFDHWGRGVLVTVSS VL: QSVLTQPPSLSATPGQTVTISCSGSNSNIGKNYVSWYQQLPGAAPKLLLYNNNLRPSGIPARFSGSKSGTSATLGITGLQAGDEATYSCATWDKTLNFWVFGGGTKVTVLG | 0.6 nM | binds | 0.041 µg/mL | 
3 | TRN1017 (antibody, V domains shown, lambda light chain; expressed in HEK293 cells) VH: QVLLVQSGGGLVQPGGSLRLACETSGFTFRHYWMHWVRQAPGKGLVWLSSIHGSGTTTRYADSVKGRFTISRDNAKNILFLQINSPRPEDTATYYCVRDDYTSGYNWGQGAFVTVSS VL: QSALTQPASVSGSRGQSITIPCTGSRSDVGGYNYVSWYQQRPGKAPKLILYDVSHRPSGISDRFSGSKLGDTASLTISGLRDEDEADYYCSSYTTKSTLYVFGTGTTVSVLG |  |  | 0.089 µg/mL | binds
